Experimental data from US9303249B2, “High concentration α-glucosidase compositions for the treatment of Pompe disease” (Amicus Therapeutics, Inc., priority 2012, dated 2016).

What was measured:
[1] = Solubility of Lumizyme® in the presence of 1-DNJ-HCl and excipients (Example 12); assay type: physicochemical
Procedure: A vial of Lumizyme® containing 52.5 mg protein, 210 mg mannitol, 0.5 mg polysorbate 80, 9.9 mg Na2HPO4×7H2O, and 31.2 mg NaH2PO4×H2O was dissolved in a minimal volume of water (1 mL added) yielding 1.2 mL of protein solution. Five 240-μL aliquots (each containing 10.5 mg protein) were transferred to Amicon Ultra 0.5 mL 30 kDa cutoff centrifugal filter devices and centrifuged for 10 min at 14,000×g in an Eppendorf centrifuge to obtain about 50 μL of retentate.
The original excipients present in the composition, i.e., mannitol and polysorbate 80 were exchanged for new excipients to test protein solubility (keeping the same buffer conditions). The following excipient solutions were prepared for the exchange using the original phosphate buffer:
For exchanging excipients, 5.2 mg Na2HPO4 and 27.1 mg NaH2PO4 were dissolved in 10.3 mL water to prepare the washing/excipient exchange phosphate buffer of approximately 26 mM. A volume of 8 mL of the buffer for excipient exchange was supplemented with 160 mg/mL of the small molecule ligand (to prepare excipient 1, 3, 4 and 5 solutions), while 2 mL was supplemented with 32 mg/mL ligand for excipient 2 (100 mM Arginine). Each of the excipients were dissolved in 2 mL of this buffer at the concentrations listed above.
An excipient solution was added to each separate filter device to achieve a total volume of 0.5 mL. Each filter device was centrifuged for 15 min at 14,000×g in a bench top Eppendorf centrifuge to retain approximately 25 μL. The units were re-filled with the same excipient solution to 0.5 mL and centrifuged again (this process was repeated 2 times). This procedure efficiently replaced mannitol and polysorbate 80 with excipients described above, diluting the original constituents by about 1:1000. All filtrates for each excipient were collected and examined for any protein leaks through the filter.
Each centrifugal filter device was inverted in a clean tube, and the concentrated protein solution was collected from each filter device by centrifugation for 2 min at 1000×g. The volume of each sample was determined (66 μL, corresponding to a target protein concentration of 160 mg/mL), and it was confirmed that no visible precipitate was observable in each sample. Samples were transferred back to their respective filter devices and centrifuged for an additional 5 min Samples were then collected by inversion of the filters into clean tubes and centrifuging for 2 min at 1000×g to yield about 37 μL of retentate (corresponding to >280 mg/mL protein based on a total initial concentration of 10.5 mg protein).
The samples were vortexed and incubated for 1 hr at room temperature to equilibrate liquid and solid phases followed by centrifugation for 10 min at 14,000×g. Again, no visible precipitate was observed. Two-three 10 μL aliquots were taken from the supernatant of each sample (depending on available volume of the liquid phase), and diluted 1:1000 in two steps. Protein concentration was measured by UV absorbance at 280 nm, and the maximum protein solubility was calculated according to a highly reproducible calibration curve. The calibration curve was prepared by dissolving 6.8 mg of Myozyme® (alglucosidase alpha) lyophilized powder (containing 1.16 mg protein) in 1.16 mL of water followed by a serial dilution in deionized water. Absorbance was measured at 280 nm in a 1 cm light-pass quartz semi-micro cuvette using 0.5 mL aliquots.

[2] = system: GAA KO mice; assay: Tissue glycogen reduction after repeat SQ with varying 1-DNJ (Example 16); assay type: in vivo, mouse; details: Lumizyme 20 mg/kg SQ alone, 4 administrations, 14 days after last
Procedure: 14-week old male GAA KO mice in groups of 7 were used in the present study. Each group of mice was administered one of the following treatments:
(§1) Each of the treatments was administered to their respective treatment group for a period of 2 weeks. The treatments were administered on Monday and Thursday of each week. SQ injections were administered between the shoulder blades of each mouse receiving treatment. A total of 4 doses were administered to each study animal.
(§2) Tissue samples were collected to determine rhGAA uptake 3 days following the last dose of the study (i.e., 3 days post dose 4). Tissue samples included heart, tongue, diaphragm, triceps, quads, gastrocnemius, ventral skin and dorsal skin from the SQ injection site. Tissue samples were also collected to determine glycogen concentration 14 days following the last dose of the study (i.e., 14 days post dose 4).
FIGS. 47-54 show tissue GAA activity 3 days following the final administration, and glycogen levels 14 days following the final administration. GAA activities in tissues were determined using a 4-MUG fluorogenic substrate assay. Glycogen levels were determined using a glycogen assay (see Example 9 for method). Lumizyme® alone administered subcutaneously led to uptake of enzyme in all investigated tissues following repeat administrations.

[3] = system: GAA KO mice; assay: Tissue rhGAA activity after repeat SQ dosing between the shoulder blades (Example 13); assay type: in vivo, mouse; details: Lumizyme 20 mg/kg +/− 1-DNJ 30 mg/kg SQ, 4 doses (Mon and Thu), 3 days after last dose
Procedure: 12-week old male GAA KO mice in groups of 7 were used in the present study. Each group of mice was administered one of the following treatments:
(2) Lumizyme® alone (20 mg/kg) delivered subcutaneously (SQ); or
(3) Co-formulated Lumizyme® (20 mg/kg) and 1-DNJ (30 mg/kg) SQ.
as §1, with “treatments were” for “treatments was”, “doses was” for “doses were”, “animal. Diphenhydramine was administered intraperitoneally (IP) before the 3rd and 4th doses.” for “animal.”
as §2, with “heart, diaphragm,” for “heart,”, “brain, spleen, liver, biceps,” for “diaphragm,”, “quadriceps, soleus,” for “quads,”

**Q.** Which Protein solubility ([1]; Arginine 100 mM, 1-DNJ-HCl 32 mg/mL) does the source give for “Lumizyme®: alglucosidase alfa, recombinant human acid α-glucosidase from Genzyme Corporation” here?
**A.** Its Protein solubility is 201 mg/mL.

**Q.** And the Protein solubility ([1]; Arginine + Glutamic acid 50 mM + 50 mM, 1-DNJ-HCl 160 mg/mL)?
**A.** Its Protein solubility is 242 mg/mL.

**Q.** And the Protein solubility ([1]; Gamma-cyclodextrin 10% (w/v), 1-DNJ-HCl 160 mg/mL)?
**A.** Its Protein solubility is 114 mg/mL.

**Q.** And the Protein solubility ([1]; PEG400 5% (w/v), 1-DNJ-HCl 160 mg/mL)?
**A.** The Protein solubility was 158 mg/mL.

**Q.** And the Protein solubility ([1]; Proline 250 mM, 1-DNJ-HCl 160 mg/mL)?
**A.** The Protein solubility was 195 mg/mL.

**Q.** And the “Glycogen (% Reduction)” value ([2]; Biceps)?
**A.** The value was 45%.

**Q.** What about the “Glycogen (% Reduction)” value ([2]; Diaphragm) of the same substance?
**A.** Its value is 8%.

**Q.** And the “Glycogen (% Reduction)” value ([2]; Gastrocnemius)?
**A.** Its value is 10%.

**Q.** What about the “Glycogen (% Reduction)” value ([2]; Heart) of the same substance?
**A.** Its value is 15%.

**Q.** What about the “Glycogen (% Reduction)” value ([2]; Quadriceps) of the same substance?
**A.** Its value is 9%.

**Q.** What about the “Glycogen (% Reduction)” value ([2]; Skin) of the same substance?
**A.** The value was 15%.

**Q.** And the “Glycogen (% Reduction)” value ([2]; Tongue)?
**A.** The value was 10%.

**Q.** And the “Glycogen (% Reduction)” value ([2]; Triceps)?
**A.** Its value is 64%.

**Q.** What about the rhGAA activity uptake ([3]; Biceps) of the same substance?
**A.** Its rhGAA activity uptake is 56.0 nmol/mg/h.

**Q.** What about the rhGAA activity uptake ([3]; Diaphragm) of the same substance?
**A.** Its rhGAA activity uptake is 4.2 nmol/mg/h.

**Q.** What about the rhGAA activity uptake ([3]; Gastrocnemius) of the same substance?
**A.** The rhGAA activity uptake was 2.0 nmol/mg/h.

**Q.** And the rhGAA activity uptake ([3]; Heart)?
**A.** The rhGAA activity uptake was 1.9 nmol/mg/h.

**Q.** What about the rhGAA activity uptake ([3]; Quadriceps) of the same substance?
**A.** Its rhGAA activity uptake is 2.1 nmol/mg/h.

**Q.** And the rhGAA activity uptake ([3]; Skin)?
**A.** Its rhGAA activity uptake is 75 nmol/mg/h.

**Q.** What about the rhGAA activity uptake ([3]; Soleus) of the same substance?
**A.** Its rhGAA activity uptake is 2.7 nmol/mg/h.

**Q.** What about the rhGAA activity uptake ([3]; Tongue) of the same substance?
**A.** Its rhGAA activity uptake is 2.7 nmol/mg/h.

**Q.** And the rhGAA activity uptake ([3]; Triceps)?
**A.** Its rhGAA activity uptake is 88.0 nmol/mg/h.
